Measured values reported in US20250144178A1, “PHARMACEUTICAL COMPOSITION FOR CANCER TREATMENT COMPRISING FUSION PROTEIN INCLUDING IL-12 AND ANTI-FAP ANTIBODY AND ANTICANCER AGENT” (KANAPH THERAPEUTICS INC., priority 2022, published 2025).

Key:
[1] = biological target: T1, recombinant mouse FAP (Mus musculus, UniProt P97321); assay: Surface plasmon resonance binding to recombinant mouse FAP; details: SPR, 2 μg/ml protein, FIGS. 13 and 14
T1 sequence (P97321 1-761): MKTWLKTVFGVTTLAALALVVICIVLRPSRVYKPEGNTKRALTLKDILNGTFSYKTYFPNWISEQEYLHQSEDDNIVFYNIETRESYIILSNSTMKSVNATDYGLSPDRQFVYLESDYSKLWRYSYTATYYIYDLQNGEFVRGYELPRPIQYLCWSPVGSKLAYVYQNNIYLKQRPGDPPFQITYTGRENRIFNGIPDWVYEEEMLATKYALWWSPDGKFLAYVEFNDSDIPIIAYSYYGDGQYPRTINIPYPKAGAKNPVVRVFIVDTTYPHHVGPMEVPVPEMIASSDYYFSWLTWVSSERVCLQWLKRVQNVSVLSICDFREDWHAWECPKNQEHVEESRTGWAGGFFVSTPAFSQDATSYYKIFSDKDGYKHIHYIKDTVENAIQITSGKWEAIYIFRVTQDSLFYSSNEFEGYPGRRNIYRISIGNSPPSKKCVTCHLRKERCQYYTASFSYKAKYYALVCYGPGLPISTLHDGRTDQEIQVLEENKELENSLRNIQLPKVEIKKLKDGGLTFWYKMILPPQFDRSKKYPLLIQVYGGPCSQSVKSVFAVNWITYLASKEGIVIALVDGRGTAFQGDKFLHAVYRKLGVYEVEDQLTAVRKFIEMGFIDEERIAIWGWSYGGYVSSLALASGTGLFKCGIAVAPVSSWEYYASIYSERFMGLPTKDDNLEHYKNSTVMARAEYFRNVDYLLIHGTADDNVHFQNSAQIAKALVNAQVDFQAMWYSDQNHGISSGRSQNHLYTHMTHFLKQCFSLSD
Description: The surface of the CM5 chip was activated with a 1:1 mixture of […] (N-hydroxysuccinimide) and […] (1-Ethyl-3-(3-dimethylaminopropyl) carbodiimide), and 25 μg/ml of anti-mouse IgG (Fc) antibody was immobilized for 400 seconds at a rate of 10 μl/min. The remaining active ester groups were blocked with 1 M ethanolamine. T1.01m, T1.02m and T1.03m were diluted to 2 μg/ml and reacted on the CM5 chip immobilized with the anti-mouse IgG (Fc) antibody. The recombinant mouse FAP was diluted to 200 nM in 1×HBS-EP+buffer solution and diluted by serial dilution. The diluted recombinant mouse FAP was reacted at a rate of 30 μl/min. The association and dissociation times were 180 seconds and 400 seconds, respectively. After the dissociation, stabilization was performed for 60 seconds, and then a regeneration was performed for 30 seconds with a 10 mM glycine pH 1.5 solution at a rate of 30 μl/min.

[2] = test system: CT26 colorectal cancer with mouse FAP overexpressing NIH-3T3 cells; assay: Tumor growth inhibition, CT26 co-injected with mouse FAP overexpressing NIH-3T3; assay type: in vivo, BALB/c mice
Description: Specifically, the mouse FAP overexpressing NIH-3T3 cells and the CT26 cells in culture were resuspended in Hanks' Balanced salt solution (HBSS, Gibco) at a concentration of 1×10^6 cells/50 μl, respectively, and the cells were mixed in a 1:1 ratio, and then 100 μl per each mouse was transplanted into the subcutaneous region of the right flank of 6-week-old BALB/c mice using a 1 cc syringe (25G) to obtain an FAP-expressing fibroblast co-injection animal model. The tumor size was measured using a digital vernier caliper by measuring the short axis and long axis of the tumor, and the tumor size was measured twice a week using the calculation formula of (short axis, mm) 2×(long axis, mm)×0.5.
Next, for drug efficacy evaluation, when the size of the tumor reached 100 mm^3, the mice were randomly divided into groups. Each experimental group consisted of 10 animals, and as a control, each 100 μl of 50 μg of T1.24m was intraperitoneally administered three times at an interval of 3 days. In the test group, each 100 μl of 10 μg and 50 μg of T1.02m and 50 μg of T1.01m, respectively, were intraperitoneally administered three times at an interval of 3 days to evaluate the tumor growth inhibitory ability.

[3] = test system: CT26 tumor; assay: Tumor re-challenge in mice with complete response, CT26 tumor; assay type: in vivo, BALB/c mice; details: mice with complete response after T1.01m, right flank, FIG. 26
Description: (§1) In order to evaluate whether tumor recurrence may be inhibited by inducing long-term immune response after fusion protein treatment, tumor re-challenge was performed in subjects in which complete response was achieved by administration of T1.01m in a tumor model transplanted with CT26 cells overexpressing FAP. BALB/c mice without a treatment history were used as control mice.
(§2) 4T1 cells were subcutaneously injected into the left flank and CT26 cells were subcutaneously injected into the right flank of control mice and mice in which complete response was achieved by administration of T1.01m, to obtain a tumor recurrence model.
(§3) CT26 cells and 4T1 cells were suspended in Hanks' Balanced salt solution (HBSS, Gibco) at a concentration of 1×10^6 cells/100 μl, respectively, and CT26 cells were transplanted into the subcutaneous region of the right flank of the mice using a 1 cc syringe (25G). Tumor formation and growth were evaluated by subcutaneous transplantation of 4T1 cells into the left flank of the same mice. Nine animals were used for the control group, and seven animals were used for the test group.

[4] = test system: 4T1 tumor; assay: Tumor re-challenge in mice with complete response, 4T1 tumor; assay type: in vivo, BALB/c mice; details: mice with complete response after T1.01m, left flank, FIG. 27
Description: as §1, §2, §3

B1: T1.01m: K&H bispecific: anti-mu FAP/mu IL-12, mu IgG2a DANG (seq18, seq19, seq20) (antibody)
heavy: QVQLQQSGAELARPGASVNLSCKASGYTFTNNGINWLKQRTGQGLEWIGEIYPRSTNTLYNEKFKGKATLTADRSSNTAYMELRSLTSEDSAVYFCARTLTAPFAFWGQGTLVTVSAAKTTAPSVYPLAPVCGDTTGSSVTLGCLVKGYFPEPVTLTWNSGSLSSGVHTFPAVLQSDLYTLSSSVTVTSSTWPSQSITCNVAHPASSTKVDKKIEPRGPTIKPCPPCKCPAPNLLGGPSVFIFPPKIKDVLMISLSPIVTCVVVAVSEDDPDVQISWFVNNVEVHTAQTQTHREDYGSTLRVVSALPIQHQDWMSGKEFKCKVNNKDLPAPIERTISKPKGSVRAPQVYVLPPPEEEMTKKQVTLWCMVTDFMPEDIYVEWTNNGKTELNYKNTEPVLDSDGSYFMYSKLRVEKKNWVERNSYSCSVVHEGLHNHHTTKSFSRTPGK
light: QIVLTQSPAIMSASPGEKVTMTCSASSGVNFMHWYQQKSGTSPKRWIFDTSKLASGVPARFSGSGSGTSYSLTISSMEAEDAATYYCQQWSFNPPTFGGGTKLEIKRADAAPTVSIFPPSSEQLTSGGASVVCFLNNFYPKDINVKWKIDGSERQNGVLNSWTDQDSKDSTYSMSSTLTLTKDEYERHNSYTCEATHKTSTSPIVKSFNRNEC
chain: MWELEKDVYVVEVDWTPDAPGETVNLTCDTPEEDDITWTSDQRHGVIGSGKTLTITVKEFLDAGQYTCHKGGETLSHSHLLLHKKENGIWSTEILKNFKNKTFLKCEAPNYSGRFTCSWLVQRNMDLKFNIKSSSSSPDSRAVTCGMASLSAEKVTLDQRDYEKYSVSCQEDVTCPTAEETLPIELALEARQQNKYENYSTSFFIRDIIKPDPPKNLQMKPLKNSQVEVSWEYPDSWSTPHSYFSLKFFVRIQRKKEKMKETEEGCNQKGAFLVEKTSTEVQCKGGNVCVQAQDRYYNSSCSKWACVPCRVRSGGGGSGGGGSGGGGSRVIPVSGPARCLSQSRNLLKTTDDMVKTAREKLKHYSCTAEDIDHEDITRDQTSTLKTCLPLELHKNESCLATRETSSTTRGSCLPPQKTSLMMTLCLGSIYEDLKMYQTEFQAINAALQNHNHQQIILDKGMLVAIDELMQSLNHNGETLRQKPPVGEADPYRVKMKLCILLHAFSTRVVTINRVMGYLSSAGGGGSGGGGSEPRGPTIKPCPPCKCPAPNLLGGPSVFIFPPKIKDVLMISLSPIVTCVVVAVSEDDPDVQISWFVNNVEVHTAQTQTHREDYGSTLRVVSALPIQHQDWMSGKEFKCKVNNKDLPAPIERTISKPKGSVRAPQVYVLPPPEEEMTKKQVTLSCAVTDFMPEDIYVEWTNNGKTELNYKNTEPVLDSDGSYFMVSKLRVEKKNWVERNSYSCSVVHEGLHNHHTTKSFSRTPGK
Binding to recombinant mouse FAP [1]: may bind to recombinant mouse FAP to specifically target FAP
tumor growth inhibitory ability compared to control ([2]; 50 μg i.p. three times at an interval of 3 days, 14th day, control 50 μg T1.24m): 91.9%
complete response ([2]; 24th day after administration, FIG. 24): subjects in complete response were observed
growth of re-challenged CT26 tumor [3]: the growth of the CT26 tumor was inhibited
growth of re-challenged 4T1 tumor [4]: the 4T1 tumor grew
